Key:
mouse TfR1 protein = target: T1, mouse TfR1 protein (mouse, UniProt Q62351 1-763); assay: immunofluorescence on normal mouse liver frozen tissue sections
T1 construct: whole, on cells; Endogenous protein in mouse tissue sections

[1] = target: T2, human transferrin receptor protein 1 (TfR1) (human, UniProt P02786 1-760); assay: immunoprecipitation with 3F3-FMA from HT-1080 cell lysate and mass spectrometry; staining lost after siRNA knockdown of TfR1
T2 construct: whole, on cells; Endogenous full-length protein of human cell lines; no recombinant construct was used; also called transferrin receptor 1; CD71
Description: The beads were used for mass spectrometry.
Trypsin digestion was performed overnight at 37° C. Supernatants were collected and dried down in a speed-vac, and peptides were dissolved in a solution containing 3% acetonitrile and 0.1% formic acid. Peptides were desalted with C18 disk-packed stage-tips. Desalted peptides were injected onto an EASY-Spray PepMap RSLC C18 50 cm×75 μm column (Thermo Scientific), which was coupled to the Orbitrap Fusion Tribrid mass spectrometer (Thermo Scientific). Peptides were eluted with a non-linear 110 min gradient of 5-30% buffer B (0.1% (v/v) formic acid, 100% acetonitrile) at a flow rate of 250 nl/min. The column temperature was maintained at a constant 50° C. during all experiments. Thermo Scientific™ Orbitrap Fusion™ Tribrid™ mass spectrometer was used for peptide MS/MS analysis. Survey scans of peptide precursors were performed from 400 to 1575 m/z at 120K FWHM resolution (at 200 m/z) with a 2×10⁵ ion count target and a maximum injection time of 50 ms. […] CID fragmentation was applied with 35% collision energy and resulting fragments were detected using the rapid scan rate in the ion trap. […]
The antigen of 3F3-FMA was identified using immunoprecipitation and mass spectrometry. […] Then magnetic beads were added and washed, and bead-immobilized proteins were analyzed by mass spectrometry. […]

T1 sequence (Q62351 whole entry): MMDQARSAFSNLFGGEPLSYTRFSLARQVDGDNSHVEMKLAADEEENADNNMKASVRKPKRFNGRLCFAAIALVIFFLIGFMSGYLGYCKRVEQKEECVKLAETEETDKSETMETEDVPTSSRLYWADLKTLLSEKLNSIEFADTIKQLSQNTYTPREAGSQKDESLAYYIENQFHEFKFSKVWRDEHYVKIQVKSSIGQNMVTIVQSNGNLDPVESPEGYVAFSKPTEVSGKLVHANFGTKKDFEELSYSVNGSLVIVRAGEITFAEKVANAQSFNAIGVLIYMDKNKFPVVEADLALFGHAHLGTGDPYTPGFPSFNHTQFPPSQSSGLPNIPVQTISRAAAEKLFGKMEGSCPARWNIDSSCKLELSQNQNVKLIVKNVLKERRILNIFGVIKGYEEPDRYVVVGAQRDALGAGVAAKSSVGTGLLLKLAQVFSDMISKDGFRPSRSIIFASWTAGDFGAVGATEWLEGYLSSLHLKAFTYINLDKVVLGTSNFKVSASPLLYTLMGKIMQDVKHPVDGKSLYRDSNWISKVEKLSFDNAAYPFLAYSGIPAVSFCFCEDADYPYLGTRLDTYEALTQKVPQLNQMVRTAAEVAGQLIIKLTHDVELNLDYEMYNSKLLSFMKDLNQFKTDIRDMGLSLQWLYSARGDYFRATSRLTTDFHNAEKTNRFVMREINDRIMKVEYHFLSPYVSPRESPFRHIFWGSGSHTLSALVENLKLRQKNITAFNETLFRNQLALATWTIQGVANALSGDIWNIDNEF
T2 sequence (P02786 whole entry): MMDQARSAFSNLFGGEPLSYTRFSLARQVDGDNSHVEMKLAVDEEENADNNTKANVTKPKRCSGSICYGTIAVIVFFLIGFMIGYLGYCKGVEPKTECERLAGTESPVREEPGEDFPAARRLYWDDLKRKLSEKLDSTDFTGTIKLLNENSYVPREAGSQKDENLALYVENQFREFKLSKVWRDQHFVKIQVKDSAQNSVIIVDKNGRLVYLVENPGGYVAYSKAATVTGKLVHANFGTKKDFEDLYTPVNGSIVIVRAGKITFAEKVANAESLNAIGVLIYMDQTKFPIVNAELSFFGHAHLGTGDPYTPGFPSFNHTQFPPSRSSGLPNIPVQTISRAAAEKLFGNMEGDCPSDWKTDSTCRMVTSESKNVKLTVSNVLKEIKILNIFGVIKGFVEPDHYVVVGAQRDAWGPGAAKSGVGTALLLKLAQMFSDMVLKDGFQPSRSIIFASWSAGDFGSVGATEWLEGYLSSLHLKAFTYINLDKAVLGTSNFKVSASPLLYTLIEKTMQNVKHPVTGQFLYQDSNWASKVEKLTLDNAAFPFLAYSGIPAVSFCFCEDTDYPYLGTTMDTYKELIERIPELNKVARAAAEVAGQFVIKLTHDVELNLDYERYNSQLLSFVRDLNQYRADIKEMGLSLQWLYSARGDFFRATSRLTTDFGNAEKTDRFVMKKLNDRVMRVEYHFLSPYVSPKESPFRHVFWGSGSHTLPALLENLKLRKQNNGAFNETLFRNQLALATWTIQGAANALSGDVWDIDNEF

B1: 3F3 anti-Ferroptotic Membrane Antibody (3F3-FMA) (antibody, V domains shown)
VH: EVLLQQSGTELVRPGALVKLSCKASGFNIQDLYIHWVKQRPEQGLEWIGWIDPETDNTIYDPKFQGKASITADTSSNTAYLQLSSLTSEDTAMYYCSTGLLQWYFDVWGAGTAVTVSS
VL: DIVMTQSPSSLAMSIGQKVTMRCKSSQSLLNSYNQKNCLAWYQQKPGQSPKLLLYFVSTRESGVPDRFIGSGSGTDFTLTISSVQAEDLADYFCQQHYSTPLTFGAGTKLELK
notes: the entries 1 and 2 should match these; also called mAb 3F3 FMA; clone FH3F3
B1: binds (mouse TfR1 protein); binds [1].

From US20230140200A1 (TRUSTEES OF COLUMBIA UNIVERSITY IN THE CITY OF NEW YORK, published 2023)
